Results on 3 molecules are retold here after CN116262790A (TAIZE HUIKANG BIOMEDICAL CO LTD; BEIJING MIANYI FANGZHOU …, dated 2023).

Test [1] addresses 人CD27 (HEK::CD27细胞表达) (human) (UniProt P26842). The experiment in a line: flow cytometry on cells expressing human CD27. Details: concentration or dose not given beside the values. (Flow cytometry measures light scatter and fluorescence of single cells or particles in a stream.)
The target in test [2] is T1, 人CD27蛋白 (Cat: 10039-H03H, Sino Biological Inc.) (human, UniProt P26842 20-192).
T1 construct: Bought recombinant protein coated on the SPR chip
T1 sequence (looked up): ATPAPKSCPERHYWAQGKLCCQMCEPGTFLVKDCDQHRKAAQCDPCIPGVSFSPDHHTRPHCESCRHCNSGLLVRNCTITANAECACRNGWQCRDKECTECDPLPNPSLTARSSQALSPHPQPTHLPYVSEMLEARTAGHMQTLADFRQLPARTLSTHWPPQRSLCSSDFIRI
In words: SPR (Reichert4), human CD27 protein on chip, antibody at 1.25e-8 as analyte.

Test [3] deals with T1, 人CD27蛋白 (Cat: 10039-H03H, Sino …). In words: SPR (Reichert4), human CD27 protein on chip, antibody at 2.50e-8 as analyte.
The target is the same in test [4]. The experiment in a line: SPR (Reichert4), human CD27 protein on chip, antibody at 5.00e-8 as analyte.
For test [5] the target is unchanged. In words: SPR (Reichert4), human CD27 protein on chip, antibody at 6.25e-9 as analyte.
Test [6] deals with T2, 人CD27 (HEK::CD27细胞表达) (human, UniProt P26842 20-260).
T2 construct: whole, on cells; also called hCD27; 表达人CD27的细胞
T2 sequence (looked up): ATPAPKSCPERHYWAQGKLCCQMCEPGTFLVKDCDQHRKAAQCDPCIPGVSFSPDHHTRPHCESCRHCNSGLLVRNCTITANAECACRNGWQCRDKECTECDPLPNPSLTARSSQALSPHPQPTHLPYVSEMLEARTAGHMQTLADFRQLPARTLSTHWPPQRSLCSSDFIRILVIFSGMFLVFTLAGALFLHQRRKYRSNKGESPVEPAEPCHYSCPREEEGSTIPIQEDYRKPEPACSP
In words: flow cytometry on HEK::CD27 cells, 10 ng and 100 ng antibody.

B1: 6D8 (antibody, V domains shown)
VH: QIQLVQSGPELKKPGETVKISCKASGYTFTNYGMNWVKQAPGKGLKWMGWINTNTGEPTYADDFKGRFAFSLETSATTAYLQINNLKNEDTATYFCAREGDGFDSWGQGTTLTVSS
VL: QFVLTQSPAIMSASPGEKVTMTCSATSSVNYMHWYQQKSGTSPKRWIYDTSRLASGVPARFSGSGSGTSYSLTISSMEAEDAATYYCQQWNTNPWTFGGGTKLEIK
notes: also called 6D8抗体; 鼠抗人CD27单克隆抗体6D8
A word on the Kd: it is the concentration at which binding is half-saturated. By koff is commonly meant a measure of how fast the partners let go of each other. The kon is a measure of how fast the partners come together. As to B1, in test [1], the 结合率 was above 85%. The Kd in test [2], in test [3], in test [4] and in test [5] was 0.514 nM each time. In addition, the koff in test [2], in test [3], in test [4] and in test [5] was 9.69e-05 s⁻¹ throughout. Also, the kon in test [2], in test [3], in test [4] and in test [5] was 188000 M⁻¹ s⁻¹ throughout.

B2: 6D8-G98A (antibody, human IgG4, V domains shown)
VH: QIQLVQSGPELKKPGETVKISCKASGYTFTNYGMNWVKQAPGKGLKWMGWINTNTGEPTYADDFKGRFAFSLETSATTAYLQINNLKNEDTATYFCAREGDAFDSWGQGTTLTVSS
VL: QFVLTQSPAIMSASPGEKVTMTCSATSSVNYMHWYQQKSGTSPKRWIYDTSRLASGVPARFSGSGSGTSYSLTISSMEAEDAATYYCQQWNTNPWTFGGGTKLEIK
notes: also called 嵌合的6D8-G98A; 6D8-G98A(人鼠嵌合抗体)
Turning to B2, in test [6], the binding result is “binds”.

B3: Varlilumab (antibody, V domains shown)
VH: QVQLVESGGGVVQPGRSLRLSCAASGFTFSSYDMHWVRQAPGKGLEWVAVIWYDGSNKYYADSVKGRFTISRDNSKNTLYLQMNSLRAEDTAVYYCARGSGNWGFFDYWGQGTLVTVSS
VL: DIQMTQSPSSLSASVGDRVTITCRASQGISRWLAWYQQKPEKAPKSLIYAASSLQSGVPSRFSGSGSGTDFTLTISSLQPEDFATYYCQQYNTYPRTFGQGTKVEIKR
With B3, the Kd in test [2], in test [3], in test [4] and in test [5] was 0.00185 nM each time. Besides, the off-rate (koff) in test [2], in test [3], in test [4] and in test [5] was 2.14e-07 s⁻¹ each time. Moreover, the association rate constant (kon) in test [2], in test [3], in test [4] and in test [5] was 116000 M⁻¹ s⁻¹ in each case.
